Columns and labels:
ATDC5 cells = assay: MTT assay of ATDC5 cell growth; assay type: cell-based, mouse; conditions: added alone, medium 1-2
Protocol: ATDC5 was inoculated to a 12-well plate at 0.4×10^5 cells/well, and cultured using the medium 1-2 described in Example 19 for 24 hours, after which asporin and bFGF were added, and MTT assay was performed over time as described below. Specifically, the medium was removed by suction, the 1 mg/ml MTT reagent (DOJINDO) dissolved in DMEM/F12 was added at 1 ml/well, and the plate was incubated in a CO2 incubator for 1 hour. The supernatant was removed by suction, a Lysis reagent (86% isopropanol, 40 mM HCl, 1% SDS) was added to the plate at 0.2 ml/well, and extraction was performed at room temperature for 5 minutes. This extract was transferred to a 96-well plate, and OD550 was measured using a plate reader.

TGF-β1 = TGF-β1 (Homo sapiens, UniProt P01137); assay: Binding assay of asporin and TGF-β by pull-down assay method; conditions: S-Protein agarose precipitate, Western blotting
Sequence of TGF-β1 (P01137 279-390 limits assumed, species assumed): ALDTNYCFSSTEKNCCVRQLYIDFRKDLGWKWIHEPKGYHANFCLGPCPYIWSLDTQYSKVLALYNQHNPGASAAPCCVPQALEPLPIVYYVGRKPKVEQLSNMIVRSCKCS
Protocol: With the pET29b-ASP13 and pET29b-ASP14 thus prepared as the templates, S-tagged human asporin D13 and D14 were prepared by performing a reaction in the presence of Transcend™ Biotin-Lysyl-tRNA using TNT Quick Coupled Transcription/Translation Systems (Promega). A reaction mixture comprising S-tagged human asporin D13 or D14 (10 μl) and TGF-β1 (0.1 μg) were mixed in buffer A (50 mM Tris (pH 7.5), 150 mM NaCl, 1% Triton X-100, complete protease inhibitor cocktail tablets (Roche)) at 4° C. for 1 hour, S-Protein agarose (Novagen, 12.5 μl) was added, and the mixture was further incubated at room temperature for 30 minutes. The precipitated resin was washed with buffer A five times, after which SDS-PAGE was performed under reducing conditions. S-tagged human asporin in the precipitate was detected by Western blotting using streptavidin-HRP (R&D Systems), and TGF-β1 was detected by Western blotting using biotinylated anti-TGF-β1 antibody (Genzyme). As a result of an examination of the binding of human asporin and TGF-β by the method described above, a band of TGF-β1 was detected in the precipitate comprising S-tagged human asporin D13 or D14 (FIG. 17).
Using the recombinant mouse asporin purified by the method described in Example 31, its capability of binding with TGF-β1 was examined by the method described in Example 22 (pull-down assay method); as a result, it was confirmed that TGF-β1 was detected in the precipitate of purified mouse asporin (FIG. 26).

type II collagen = assay: Binding assay of asporin and collagen (type II); conditions: 37° C., 5 hours, precipitate, Western blotting
Sequence of type II collagen (P02458 182-1241 limits assumed): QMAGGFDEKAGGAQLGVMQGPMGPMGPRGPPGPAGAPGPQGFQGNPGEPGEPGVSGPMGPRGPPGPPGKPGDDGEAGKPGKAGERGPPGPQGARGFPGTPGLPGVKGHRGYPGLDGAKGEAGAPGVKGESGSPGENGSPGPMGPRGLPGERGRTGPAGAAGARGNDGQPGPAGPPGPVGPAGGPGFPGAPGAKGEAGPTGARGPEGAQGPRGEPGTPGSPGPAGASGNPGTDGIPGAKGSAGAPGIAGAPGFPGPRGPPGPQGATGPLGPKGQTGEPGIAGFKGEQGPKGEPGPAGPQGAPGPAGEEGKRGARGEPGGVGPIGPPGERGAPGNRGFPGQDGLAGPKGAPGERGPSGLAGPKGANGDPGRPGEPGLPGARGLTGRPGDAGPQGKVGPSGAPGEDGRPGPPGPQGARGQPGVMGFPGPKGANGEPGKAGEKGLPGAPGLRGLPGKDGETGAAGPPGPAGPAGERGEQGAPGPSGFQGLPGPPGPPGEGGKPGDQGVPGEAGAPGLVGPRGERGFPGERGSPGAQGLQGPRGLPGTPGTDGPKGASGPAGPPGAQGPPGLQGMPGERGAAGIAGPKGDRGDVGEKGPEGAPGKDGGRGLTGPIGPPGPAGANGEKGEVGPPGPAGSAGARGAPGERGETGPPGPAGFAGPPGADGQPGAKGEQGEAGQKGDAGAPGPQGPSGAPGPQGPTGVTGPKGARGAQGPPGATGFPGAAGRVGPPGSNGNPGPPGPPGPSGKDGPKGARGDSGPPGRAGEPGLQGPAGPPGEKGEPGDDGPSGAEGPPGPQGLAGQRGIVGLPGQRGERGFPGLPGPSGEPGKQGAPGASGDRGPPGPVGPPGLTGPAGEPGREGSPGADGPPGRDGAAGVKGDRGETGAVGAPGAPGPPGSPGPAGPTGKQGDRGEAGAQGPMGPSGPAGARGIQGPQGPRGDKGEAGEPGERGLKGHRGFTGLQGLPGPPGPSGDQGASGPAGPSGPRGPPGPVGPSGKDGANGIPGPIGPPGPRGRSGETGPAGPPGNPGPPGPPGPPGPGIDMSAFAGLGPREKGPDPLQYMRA
Protocol: (§1) A binding assay of asporin and collagen was performed by the method described below. As a collagen an acid-soluble type II collagen solution (KOKEN, 3 mg/ml) and an acid-soluble type I collagen solution (1-C: Nitta Gelatin Inc., 3 mg/ml) were used. A reaction mixture comprising 5 μl of an acid-soluble collagen solution (3 mg/ml), 5 μl of an S-tagged human asporin reaction mixture prepared by the method described in Example, and 90 μl of PBS, was prepared, and incubated at 37° C. for 5 hours. This reaction mixture was centrifuged (10,000 rpm, 5 minutes, 4° C.), after which the precipitate was washed with PBS three times. The washed precipitate was dissolved in 20 μl of a sample buffer (comprising 1 μl of 2-mercaptoethanol), after which SDS-PAGE was performed, and Western blotting was performed using streptavidin-HRP. As a result, S-tagged human asporin D13 and D14 bound to both type II collagen and type I collagen (FIG. 21a).

type I collagen = molecular target: T1, type I collagen (Homo sapiens, UniProt P02452+P08123); assay: Binding assay of asporin and collagen (type I); conditions: 37° C., 5 hours, precipitate, Western blotting
T1 construct: purchased Nitta Gelatin Inc. 1-C
T1 sequence (P02452 162-1218 limits assumed): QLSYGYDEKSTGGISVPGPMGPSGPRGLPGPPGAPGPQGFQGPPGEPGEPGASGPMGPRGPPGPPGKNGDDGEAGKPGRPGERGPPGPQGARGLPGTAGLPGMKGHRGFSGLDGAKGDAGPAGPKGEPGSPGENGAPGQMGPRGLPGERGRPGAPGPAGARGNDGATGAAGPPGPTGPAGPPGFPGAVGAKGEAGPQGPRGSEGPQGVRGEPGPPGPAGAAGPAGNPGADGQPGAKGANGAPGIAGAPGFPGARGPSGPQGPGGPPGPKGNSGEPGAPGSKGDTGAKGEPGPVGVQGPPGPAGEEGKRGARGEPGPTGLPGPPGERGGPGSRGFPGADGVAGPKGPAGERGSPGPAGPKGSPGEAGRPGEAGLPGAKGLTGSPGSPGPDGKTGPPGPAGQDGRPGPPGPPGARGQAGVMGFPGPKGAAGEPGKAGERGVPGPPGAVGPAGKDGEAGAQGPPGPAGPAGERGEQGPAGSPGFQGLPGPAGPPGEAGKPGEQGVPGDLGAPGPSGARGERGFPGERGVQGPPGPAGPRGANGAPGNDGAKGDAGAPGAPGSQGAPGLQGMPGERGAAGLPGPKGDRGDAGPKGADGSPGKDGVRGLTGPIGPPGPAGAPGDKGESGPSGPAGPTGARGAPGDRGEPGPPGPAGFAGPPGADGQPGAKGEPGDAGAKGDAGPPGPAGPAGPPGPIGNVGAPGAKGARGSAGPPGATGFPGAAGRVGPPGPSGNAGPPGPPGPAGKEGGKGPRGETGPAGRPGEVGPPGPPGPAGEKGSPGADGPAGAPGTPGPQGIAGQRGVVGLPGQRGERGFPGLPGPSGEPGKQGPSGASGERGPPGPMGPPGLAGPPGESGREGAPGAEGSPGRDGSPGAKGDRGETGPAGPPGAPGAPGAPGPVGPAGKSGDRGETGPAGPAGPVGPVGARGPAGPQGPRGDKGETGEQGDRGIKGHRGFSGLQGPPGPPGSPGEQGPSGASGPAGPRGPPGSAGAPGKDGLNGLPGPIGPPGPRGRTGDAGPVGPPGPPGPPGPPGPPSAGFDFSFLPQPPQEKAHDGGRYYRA
T1 sequence (P08123 80-1119 limits assumed): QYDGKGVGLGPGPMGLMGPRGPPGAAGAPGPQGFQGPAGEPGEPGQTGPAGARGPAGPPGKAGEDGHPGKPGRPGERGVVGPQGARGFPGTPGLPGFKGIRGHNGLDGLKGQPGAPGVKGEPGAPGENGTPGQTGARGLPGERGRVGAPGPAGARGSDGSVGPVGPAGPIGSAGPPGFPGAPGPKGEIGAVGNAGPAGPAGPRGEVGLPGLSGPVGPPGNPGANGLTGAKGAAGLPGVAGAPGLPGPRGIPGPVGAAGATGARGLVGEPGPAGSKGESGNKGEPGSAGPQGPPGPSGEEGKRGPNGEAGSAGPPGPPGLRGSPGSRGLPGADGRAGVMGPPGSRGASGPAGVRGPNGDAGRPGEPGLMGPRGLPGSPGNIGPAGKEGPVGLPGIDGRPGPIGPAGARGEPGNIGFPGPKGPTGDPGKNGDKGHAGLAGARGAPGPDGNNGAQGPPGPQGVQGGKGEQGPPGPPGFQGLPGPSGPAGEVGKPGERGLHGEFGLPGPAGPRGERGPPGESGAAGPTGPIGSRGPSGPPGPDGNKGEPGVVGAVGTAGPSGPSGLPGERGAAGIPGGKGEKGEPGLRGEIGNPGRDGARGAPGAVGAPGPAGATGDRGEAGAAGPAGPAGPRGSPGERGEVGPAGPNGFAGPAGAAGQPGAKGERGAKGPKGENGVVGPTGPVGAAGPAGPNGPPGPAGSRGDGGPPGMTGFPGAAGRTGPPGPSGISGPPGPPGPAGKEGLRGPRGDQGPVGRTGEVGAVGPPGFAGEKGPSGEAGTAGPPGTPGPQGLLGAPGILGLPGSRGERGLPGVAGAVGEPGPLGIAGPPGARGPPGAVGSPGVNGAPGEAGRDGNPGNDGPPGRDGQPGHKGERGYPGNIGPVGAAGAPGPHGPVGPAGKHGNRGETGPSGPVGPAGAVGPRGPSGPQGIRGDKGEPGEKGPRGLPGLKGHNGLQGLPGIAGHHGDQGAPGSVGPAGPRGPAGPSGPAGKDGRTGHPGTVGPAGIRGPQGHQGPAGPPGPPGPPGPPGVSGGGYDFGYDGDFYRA
Protocol: as §1

[1] = system: ATDC5 cell lines that transiently express human asporin; assay: TGF-β1-stimulated aggrecan and type II collagen gene expression in ATDC5 transiently expressing human asporin; assay type: cell-based, mouse; conditions: transient expression
Protocol: ATDC5 cells were inoculated to a 12-well plate at 0.5×10^5 cells/well, and cultured in a medium 1-2 (DMEM/F12 medium containing 5% FBS, ITS (Sigma), penicillin (100 U/ml) and streptomycin (100 μg/ml)). 24 hours later, pcDNA3.1-ASP13 or pcDNA3.1-ASP14 were introduced using FuGENE-6 (Roche), and the cells were cultured for 24 hours. Next, the medium was exchanged with a medium 1-2 containing 0.2% FBS, and the cells were cultured for 12 hours, after which TGF-β1 (10 ng/ml) was added, and the cells were further cultured for 18 hours, after which total RNA extraction, purification, cDNA synthesis, and real-time PCR were performed in the same manner as Example 18. As a result, the elevation of the TGF-β1-stimulated expression levels of the aggrecan and type II collagen genes was suppressed in the ATDC5 cells allowed to transiently express human asporin D13 or D14 compared to mock (FIG. 14).
First, the expression level of the aggrecan gene elevated by TGF-β1 stimulation in mock is written as (AM), and the expression level of the type II collagen gene at the same time is written as (CM). Next, the TGF-β1-stimulated aggrecan gene expression level suppressed by the forced expression of asporin D13 is written as (A13), and the type II collagen gene expression level at the same time is written as (C13). […] Thus, the suppression rate of the TGF-β1-stimulated aggrecan gene expression in the asporin D13 expressing line can be expressed as (A13)/(AM), and the suppression rate of the type II collagen gene expression as (C13)/(CM). Likewise, the suppression rate of the TGF-β1-stimulated aggrecan gene expression in the asporin D14 expressing line can be expressed as (A14)/(AM), and the suppression rate of the type II collagen gene expression as (C14)/(CM). Furthermore, by making a correction by dividing these values by the human asporin mRNA content obtained with TGF-β1 stimulation, the suppression rate of the aggrecan and type II collagen gene expression per human asporin mRNA content were calculated. […]

Molecule	growth of ATDC5 cells (MTT, OD550) (ATDC5 cells)	binding to TGF-β1 (pull-down) (TGF-β1)	binding to type II collagen (type II collagen)	binding to type I collagen (type I collagen)	suppressive action on the TGF-β1-stimulated expression of COL2A1 compared with D14 [1]
bFGF: growth factor added to ATDC5 cells and coated on microplate [reference compound]	suppressed the growth of ATDC5 cells concentration-dependently	–	–	–	–
S-tagged human asporin D13: mature S-tagged human asporin D13 synthesized cell-free from pET29b-ASP13, lysines biotinylated (protein, left off: small tags and cut ends, mature S-tagged human asporin D13 synthesized cell-free from pET29b-ASP13, lysines biotinylated) DMEDTDDDDDDDDDDDDDEDNSLFPTREPRSHFFPFDLFPMCPFGCQCYSRVVHCSDLGLTSVPTNIPFDTRMLDLQNNKIKEIKENDFKGLTSLYGLILNNNKLTKIHPKAFLTTKKLRRLYLSHNQLSEIPLNLPKSLAELRIHENKVKKIQKDTFKGMNALHVLEMSANPLDNNGIEPGAFEGVTVFHIRIAEAKLTSVPKGLPPTLLELHLDYNKISTVELEDFKRYKELQRLGLGNNKITDIENGSLANIPRVREIHLENNKLKKIPSGLPELKYLQIIFLHSNSIARVGVNDFCPTVPKMKKSLYSAISLFNNPVKYWEMQPATFRCVLSRMSVQLGNFGM	–	bound to TGF-β1 in vitro	bound	bound	–
D16: asporin having D-repeat number of 16, transiently expressed (protein) AKPFFSPSHIALKNMMLKDMEDTDDDDDDDDDDDDDDEDNSLFPTREPRSHFFPFDLFPMCPFGCQCYSRVVHCSDLGLTSVPTNIPFDTRMLDLQNNKIKEIKENDFKGLTSLYGLILNNNKLTKIHPKAFLTTKKLRRLYLSHNQLSEIPLNLPKSLAELRIHENKVKKIQKDTFKGMNALHVLEMSANPLDNNGIEPGAFEGVTVFHIRIAEAKLTSVPKGLPPTLLELHLDYNKISTVELEDFKRYKELQRLGLGNNKITDIENGSLANIPRVREIHLENNKLKKIPSGLPELKYLQIIFLHSNSIARVGVNDFCPTVPKMKKSLYSAISLFNNPVKYWEMQPATFRCVLSRMSVQLGNFGM	–	–	–	–	significantly weaker than that of D14
D17: asporin having D-repeat number of 17, transiently expressed (protein) AKPFFSPSHIALKNMMLKDMEDTDDDDDDDDDDDDDDEDNSLFPTREPRSHFFPFDLFPMCPFGCQCYSRVVHCSDLGLTSVPTNIPFDTRMLDLQNNKIKEIKENDFKGLTSLYGLILNNNKLTKIHPKAFLTTKKLRRLYLSHNQLSEIPLNLPKSLAELRIHENKVKKIQKDTFKGMNALHVLEMSANPLDNNGIEPGAFEGVTVFHIRIAEAKLTSVPKGLPPTLLELHLDYNKISTVELEDFKRYKELQRLGLGNNKITDIENGSLANIPRVREIHLENNKLKKIPSGLPELKYLQIIFLHSNSIARVGVNDFCPTVPKMKKSLYSAISLFNNPVKYWEMQPATFRCVLSRMSVQLGNFGM	–	–	–	–	significantly weaker than that of D14
biglycan: SLRP family proteoglycan used as the negative control for collagen binding (protein, UniProt P21810 38-368, looked up) Biglycan: DEEASGADTSGVLDPDSVTPTYSAMCPFGCHCHLRVVQCSDLGLKSVPKEISPDTTLLDLQNNDISELRKDDFKGLQHLYALVLVNNKISKIHEKAFSPLRKLQKLYISKNHLVEIPPNLPSSLVELRIHDNRIRKVPKGVFSGLRNMNCIEMGGNPLENSGFEPGAFDGLKLNYLRISEAKLTGIPKDLPETLNELHLDHNKIQAIELEDLLRYSKLYRLGLGHNQIRMIENGSLSFLPTLRELHLDNNKLARVPSGLPDLKLLQVVYLHSNNITKVGVNDFCPMGFGVKRAYYNGISLFNNPVPYWEVQPATFRCVTDRLAIQFGNYKK	–	–	did not bind	did not bind	–
S-tagged human asporin D14: mature S-tagged human asporin D14 synthesized cell-free from pET29b-ASP14, lysines biotinylated (protein, left off: small tags and cut ends, mature S-tagged human asporin D14 synthesized cell-free from pET29b-ASP14, lysines biotinylated) DMEDTDDDDDDDDDDDDDDEDNSLFPTREPRSHFFPFDLFPMCPFGCQCYSRVVHCSDLGLTSVPTNIPFDTRMLDLQNNKIKEIKENDFKGLTSLYGLILNNNKLTKIHPKAFLTTKKLRRLYLSHNQLSEIPLNLPKSLAELRIHENKVKKIQKDTFKGMNALHVLEMSANPLDNNGIEPGAFEGVTVFHIRIAEAKLTSVPKGLPPTLLELHLDYNKISTVELEDFKRYKELQRLGLGNNKITDIENGSLANIPRVREIHLENNKLKKIPSGLPELKYLQIIFLHSNSIARVGVNDFCPTVPKMKKSLYSAISLFNNPVKYWEMQPATFRCVLSRMSVQLGNFGM	–	bound to TGF-β1 in vitro	bound	bound	–

— patent US20090075921A1, “Bone/joint disease sensitivity gene and use thereof” (Riken, priority 2004, published 2009)
